# Experimental data from a protein production outcome set (Wang et al. 2014).
# Experiment: label from the status in PepcDB records
row,Sequence,protein production
1,MKRERSDFEESLKNIDIAKCLMILAQTSMVKQIGLNQHTESHTSNQFECKTCNKRFSSFQALGGHRASHKKPKLTVEQKDVKHLSNDYKGNHFHKCSICSQSFGTGQALGGHMRRHRSSMTVEPSFISPMIPSMPVLKRCGSSKRILSLDLNLTPLENDLEYIFGKTFVPKIDMKFVL,failed
2,MFVVAVANTKGGCGKTTLATHLAASFACRGYATGLADLDRQKSALGWLKRRPEGAAPIQGINLAREEDIPEGIERLVVDAAAAMDKDVVKDIVRRADLVVVPVLPGVFDEDGTARFVGHLESLKSIRKNRRDVAFVANRVRLNTRALTRLGGFLEELSFPVIARLRDTQHYTAAAAEGLSLFDLPGGRAADYRAEWTPLLDFIEIRVRGLEHHHHHH,not failed
3,MGIKNDLEIRLQKLQQQGNFKNYLEQYPTDASTAAYFLIEIYNDGNIGGRSVIDAGTGNGILACGSYLLGAESVTAFDIDPDAIETAKRNCGGVNFMVADVSEISGKYDTWIMNPPFGSVVKHSDRAFIDKAFETSMWIYSIGNAKARDFLRREFSARGDVFREEKVYITVPRIYRHHSYDRARIEAVIFGVRNHSF,not failed
4,MLLSFFLINSNGEVIIEKSWKTEHTRRVCDLFWQEILKVSSPEELAPLLHFPKFTIVHIYSCGVFLVATVRKTLQSTFALELLHHLVDTFVDYFGEFNEHAIKENFVTVYEIIEEVLDHGFPFTVDIASLKELVPPPSLLSRVLGSVTGSSLSLKDISDWNSRKKVSWRNPNIRYAHNEIFVDIVEEVSVVLNSKGQCIHSGISGSIVVNCRLSGMPELALHLNESSIAKHSFVHPCVRYGRFIREGIISFVPPDGVFQLLKYQTWKAPYIPVTLEPQYSVDKERKHGRLQLTLDIRGCGGKPCEEMMISIPFHHATNITNLNVTVGTVRYDSQIQVCPI,failed
5,MSDARAWDSPDDAHRLIAKALAELVAEDPTIPPHPYLSRHLAQHAARGRVLDDTHVPLAILPWESSRNVRILLRQTGATQQQDWLEAWAGIEPFVRDADPDSRLTSLHLAHHTATCRRLSLTARPVSERRLAGSRITPLWSDWTAPDNVLAVSDTLVESLAHTTTAPGRTLLISGDSHGTIRMWEANGTPAGAPLHTHGGAIQHLLPLQHDLLVSGGTDGAVRVWHSTRGQQLVEPVRRPHTWVSALALFEPADGARFLLVAHSDGHLTALDPVTFEPADTPLPALDPAPAILTPLATADGTALVIAQGRRVVVWRPGRGVVHISEHQGEVRAVVALPSGGRYAVCDDSGYLGFWDVSTGHETVAAGPAHDGPVIALTTLAVDGRQTVVSAGLDHTLRVWDADTGRPVGGALEGHTDPPVALTTLPGEGQELVVSAAADHTLRRWKLAGHGTRPRRPVRRPVTAAALPGPTVVPALLAAVADGAGTALWNVRTGRHVSLPAGEPPVTAFAWATVHGDPVLLTAHSDAAVRLWSLYAGNAVTPSLRGTLLNHSLPVQAMTAFPHAGATLLATGGADGSVRLWHLGDRLELAHWDDHALSVRDVTLLGTGEDALIVSAGSDGTVRLWDPGTRRASGGPVHCGQQVVHAVTTVAPHPDEAALIASGGEDGTVRLWDPTTRQPVGDPLDARDGAVTALASFHTPAGRPCLAAAGPSGTIHLWDVAARTHLLRIVTGNPLSTLAARQTGEPFTEHPVLLAAGTAGVCMFDVRLERLR,failed
6,MVKLELLKQSDASALLKFELNNKEWFESFIEARDDDFFDDNGIKEHVNFCLAEYKKGLLYPTLIKDEDGQILGRANLYNIDRVKNSGSIGYRIGEEFTSQGLATLATKELLEIGKNRYELSSINAVASTDNAASQKVLIKNGFKEVGFKPEFAFVDGEIIDCYEYRCLIQQLTPVM,failed
7,VELPTEYTEQFSSQPTLNSKPIIKFEFTGNSVDAPVLSMASKKFGIDFSILMSQIDYAGGVKFGFVIAEVEGDGEAITAAKCYLINNNVKVEVLGYVG,failed
8,MLIDSLHVSFDSFNFESILPMLVLVCGGIFTLLINAFTSRFSRNLNVFLCMLFLVLDFLVVLGLEEQENAFFGFLSLDTLSLISQSIVLISAFLLIFLALSKERFNEFQTAEFYSLYLFIVAGFQFMVSSNHLLLILIGLETASLPLCVLMALSDKRYGLEAGIKYFTMGAMASAFFAMGAMAFYLLTGSLNLEVITLYLHTEGITNPMLFAMGAIFLIGAIGFKVSLVPFHTWMPDVYEGNNPVFASYISIVPKIAGFVVATRLFGAFIDTRTAWVEDIFYVLILMTITIPNFIALWQEDVKRMLAYSSISHSGFALACVFIHTEDSQQAMFVYWFMFAFTYIGAFGLLWLLKSREKTWDERYDHPYSKFNGLIKTHPLVAILGAIFVFGLAGIPPFSVFWGKFLAVESALESNHILLAVVMLVNSAVAAFYYFRWLVAMFFNKPLQSYAQNDIYTQNATMPIYAVIIAMALACLFSVFMMRGLLEFVA,failed
9,MGDEHSLIPKQIGVVPSAGFLNVEVFERPCPEPNIQPWDIPYVHYPKPKTYSSSNGEIFSVKDRRANVSTIFETLDKVYNLDWLSSASKNECTSAVGLKWMLNQAEILARYKPLINTSLLIPDLKQVQEMTSKALAYFNTTRHIFLYYEDVVKNRTKLDDVQEFLKVPKLDLKSRQVKIHHGPLSQHVQNWEEVQKTLKGTGFENFLLEDYRR,failed
10,MDSRKALDGLAVTLMIILCLTWGLQQVALKATSAEIAPLMQIAIRSGISALLVGIMMAVRGERLSLAGGMWRPGLAVGFLFALEYLLVGEGLRHTTASHMVIFLYTAPVFAAIGLHLKLRSERLRPVQWFGIALAFGGIVVSFYGRGGHTASLSVASVIWGDVLGLAAGMAWGMTTVVIRTSRLAACSATQTLLFQLLGAFILLLPAAAVLDQTYFNPTRLGWACLIFQTLIVSFASFLVWFWLLRHYVASRLGVLSFMTPLFGVALGAWLLNEPLERGFLAGALLVLTGIILVSGHGWLRQLGNGAGAAVQEQAREPDLP,failed
11,MAASSPDSYISRRPYVTMGLTVAGVLVLVVATQLVEVLFTVFAGILLAVFLAGVTQELTEDTRLPRPLAVALTLIGLGGVLVGLWALAGPDISEQASALATLLPDAAERLASRIRTTVQRYGWMQRYVDPSQLLPPVSSVLGRVTNVFRDTLNLLVNGFIILFIGIYGGAAPQSYLDGVVQLVPPSSRPRARDVLSALGRALRWWLTGRLILMLIVGVLTAVGLKVVGIPSPIALGLLAALFSFVPYLGPVLSVLPALLVASLIGPTEVLYVILVYGAVQLLESYLISPLVQQQAVHIPPATVITAQFIGGVSAGAGGVLLATPFAIVVIVLVQTLYVEDVLGDEVSLLGEH,failed
12,MCGDCVEKEYPNRGNTCLENGSFLLNFTGCAVCSKRDFMLITNKSLKEEDGEEIVTYDHLCKNCHHVIARHEYTFSIMDEFQEYTMLCLLCGKAEDTISILPDDPRQMTLLF,failed
13,MKLSILKNSMNSGKAVLFIVTGIIGLLIAIGTMLLFSFYPTEQNVSQSILYITFALWTVGWVLGPIIAGGDGILRSEYFVLLPFTSYKLARALLVVAFIGLGPIVSLIAFIGLFIYAARVSLSATIVAIPAIILQLIFVVLLSKVVVSIIGETLKSRIGMEVGAMLFGFIIAFLNVGWYVLPTINKMTLSDSTLLYMFPSSWAILAVEYAIQSNWLLVLVFLIVLTILCGLLFFIWATLLMKSTETKKIEGRITTNKHRKALRFFSETKIGATITKELKSWRRDPQRGRFLRMGIWIGVFYGILVTSANISYLMPWAGIIMIVFTSMFSCNIYGFDGSALWLTLTTPDAERIDVRGRQFAWLIAVGPIAILATIIFTISSGLTFIYPWVFTVIPALLGGAAGLIMLFSVFNVVPITDPHRRGRGSVISGDDMNASKMFITTWLMMVMVMATTIPALLVVWLGTLLHVQFLQWLGVLTGICTGMFFAWWFGRIAYLKIEKSGSELLFEMKNGMKTLRDDNKKKGNRKAVELPKKKLAIVVLLVFMGIFFLIHQSVVPLIFEIFSIDDKVRLFFLPRYVPHIVRIPIIILFAILGIASLYKAILIKKKHGKEHRFIKDEM,failed
14,MDAEGNLFMSWRDGGTFGIARINEQQNIVTPLIEADAANRILYANGLTVDRATGMLTAAHESVKEVTFTFDPREAWYPRQRNIKYSQSDLNSIVDADRYKNFVTFCPYDGYLYTRYRDGKIAKIDPNTFEGHIIHQGPSGSQYGQAINPAKPWLLYITLHSNAPTAYRQGISVLDLRDPDGTGGFKRLNAPGGSAFRDGPIEDALFNYPKDIKFDNDGNMFVADYGNHCIRMISADNIVTTVAGQPGVAGYKDGGPVESLFKNPWGVAVNEQGDIYIADWGNARIRKLVIELEHHHHHH,failed
